The source of these data is patent publication US20150160219.

This series deals with T1, Indicator molecule of Example 3 (synthetic peptide with MMP-9 sequence, HNE sequence, DNP, fluorescent label and terminal biotin via PEG).
T1 chain: GPQGIFGQGAAPVA

B1: human neutrophil elastase (HNE) (Lee biotech, 342-40) (protein)
chain: IVGGRRARPHAWPFMVSLQLRGGHFCGATLIAPNFVMSAAHCVANVNVRAVRVVLGAHNLSRREPTRQVFAVQRIFENGYDPVNLLNDIVILQLNGSATINANVQVAQLPAQGRRLGNGVQCLAMGWGLLGRNRGIASVLQELNVTVVTSLCRRSNVCTLVRGRQAGVCFGDSGSPLVCNGLIHGIASFVRGGCASGLYPDAFAPVAQFVNWIDSIIQ
Turning to B1, the “detectable limit of the lateral flow cleavage assay” value is “approximately 62.5-125 ng/ml”.
